According to US20230039279:

How the values were obtained:
[1] = tested on: MMP-9 sensitive peptide (GPRSLSG-RRCG) linked ibuprofen
[2] = tested on: peptide (6)
[3] = tested on: ibu-GPQGIWGQ-DRCG
[4] = tested on: MMP-9 peptide substrate M2, GRCR-GPRSLSG-RCRG
[5] = tested on: peptide (7)
[6] = tested on: peptide (2)
[7] = tested on: peptide (5)
[8] = tested on: peptide (3), crosslinker based on substrate AVRWLLTA
[9] = tested on: peptide (4)
[10] = tested on: cleavable peptide (1) GCRR-KGPRSLSGK-RRCG
[11] = tested on: non-cleavable scrambled peptide GCRR-KSSRGGPLK-RRCG

matrix-metalloprotease-9 (MMP-9), 83 kDa, Merck, sequence (chain, as listed by the source): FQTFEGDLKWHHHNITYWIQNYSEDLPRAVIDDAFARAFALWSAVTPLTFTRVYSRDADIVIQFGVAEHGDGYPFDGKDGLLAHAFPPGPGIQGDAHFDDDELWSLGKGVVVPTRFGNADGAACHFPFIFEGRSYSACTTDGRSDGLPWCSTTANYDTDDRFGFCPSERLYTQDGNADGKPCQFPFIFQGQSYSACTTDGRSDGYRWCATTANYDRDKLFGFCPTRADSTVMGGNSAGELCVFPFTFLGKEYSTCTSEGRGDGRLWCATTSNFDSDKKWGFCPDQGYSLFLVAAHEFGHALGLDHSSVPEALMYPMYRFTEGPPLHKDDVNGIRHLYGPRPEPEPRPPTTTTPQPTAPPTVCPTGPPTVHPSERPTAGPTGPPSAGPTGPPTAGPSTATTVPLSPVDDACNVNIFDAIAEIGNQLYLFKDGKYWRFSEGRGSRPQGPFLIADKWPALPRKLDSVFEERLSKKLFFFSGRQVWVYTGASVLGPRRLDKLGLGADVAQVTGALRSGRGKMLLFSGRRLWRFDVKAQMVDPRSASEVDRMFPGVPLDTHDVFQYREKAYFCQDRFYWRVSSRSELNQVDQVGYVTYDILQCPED

Substance | specificity of protease-triggered ibuprofen liberation (FIG. 10B) [1] | cleavability of hybrid hydrogel (release of PLGA particles into the medium after 20 h with 3 µg/ml MMP-9) [2] | LC-MS detection of the liberated fragment in the supernatant after 2 days of hydrogel exposure to MMP9 solution [3] | degradation of H2-M2 combinational hydrogel and release of PLGA particles over 24 hours [4] | cleavability of hybrid hydrogel (release of PLGA particles into the medium after 20 h with 3 µg/ml MMP-9) [5] | cleavability of hybrid hydrogel (release of PLGA particles into the medium after 20 h with 3 µg/ml MMP-9) [6] | cleavability of hybrid hydrogel (release of PLGA particles into the medium after 20 h with 3 µg/ml MMP-9) [7] | cleavability of hybrid hydrogel (release of PLGA particles into the medium after 20 h with 3 µg/ml MMP-9) [8] | ultimate cumulative drug release at 48 hours from the dual-responsive conjugate hydrogel, MMP-9 alone (2 µg/ml) [1] | cleavability of hybrid hydrogel (release of PLGA particles into the medium after 20 h with 3 µg/ml MMP-9) [9] | cleavability of hybrid hydrogel (release of PLGA particles into the medium after 20 h with 3 µg/ml MMP-9) [10] | cumulative drug release from GEL-iP after 4 hours with 3 µg/ml MMP-9 [10] | cumulative drug release from scrGEL-iP after 4 hours with 3 µg/ml MMP-9 [11]
cathepsin B | the peptide sequence, GPRSLSGRRCG (SEQ ID NO: 20), as a spacer illustrated a good specificity toward MMP-9 compared to cathepsin B and human neutrophil elastase (HNE) |  |  |  |  |  |  |  |  |  |  |  | 
matrix-metalloprotease-9 (MMP-9), 83 kDa, Merck | the peptide sequence, GPRSLSGRRCG (SEQ ID NO: 20), as a spacer illustrated a good specificity toward MMP-9 compared to cathepsin B and human neutrophil elastase (HNE) | hydrogels formed with peptides (2), (3), and (6) were not cleaved upon exposure to MMP-9 | LC-MS analysis confirmed the presence of the liberated ibuprofen bearing fragment (ibu-GPQG, LC peak at elution time of 14.6 min, MS peak at m/z=546.20) | H2 and M2 peptide substrates were preferentially cleaved by HNE and MMP-9 proteases respectively | hybrid hydrogels crosslinked with peptides (1), (4), (5) and (7) could be digested by MMP-9 | hydrogels formed with peptides (2), (3), and (6) were not cleaved upon exposure to MMP-9 | hybrid hydrogels crosslinked with peptides (1), (4), (5) and (7) could be digested by MMP-9 | hydrogels formed with peptides (2), (3), and (6) were not cleaved upon exposure to MMP-9 | the ultimate cumulative release achieved 71% | hybrid hydrogels crosslinked with peptides (1), (4), (5) and (7) could be digested by MMP-9 | hybrid hydrogels crosslinked with peptides (1), (4), (5) and (7) could be digested by MMP-9 | exposing GEL-iP to MMP-9 for 4 hours significantly boosted the cumulative drug release to 100% compared to only 25% in the absence of MMP-9 | only 40% was released from the hybrid hydrogel crosslinked by the scrambled peptide (scrGEL-iP) at the same condition
